The source of these data is publication PMC10237651, “Arabidopsis FIN219/JAR1 interacts with phytochrome A under far-red light and jasmonates in regulating hypocotyl elongation via a functional demand manner” (PLOS Genetics, 2023).

The target in this assay is T1, CBP-PHYA (recombinant full-length PHYA) (Arabidopsis, UniProt P14712 1-1122).
T1 construct: phytochrome A (PHYA), Arabidopsis, At1g09570, full length; coding region cloned into pCAL-n in frame with an upstream CBP tag; Made in E. coli; no chromophore is mentioned; also called CBP-PHYA-F; source: E. coli (BL21), purified (Calmodulin Resin)
T1 sequence (looked up): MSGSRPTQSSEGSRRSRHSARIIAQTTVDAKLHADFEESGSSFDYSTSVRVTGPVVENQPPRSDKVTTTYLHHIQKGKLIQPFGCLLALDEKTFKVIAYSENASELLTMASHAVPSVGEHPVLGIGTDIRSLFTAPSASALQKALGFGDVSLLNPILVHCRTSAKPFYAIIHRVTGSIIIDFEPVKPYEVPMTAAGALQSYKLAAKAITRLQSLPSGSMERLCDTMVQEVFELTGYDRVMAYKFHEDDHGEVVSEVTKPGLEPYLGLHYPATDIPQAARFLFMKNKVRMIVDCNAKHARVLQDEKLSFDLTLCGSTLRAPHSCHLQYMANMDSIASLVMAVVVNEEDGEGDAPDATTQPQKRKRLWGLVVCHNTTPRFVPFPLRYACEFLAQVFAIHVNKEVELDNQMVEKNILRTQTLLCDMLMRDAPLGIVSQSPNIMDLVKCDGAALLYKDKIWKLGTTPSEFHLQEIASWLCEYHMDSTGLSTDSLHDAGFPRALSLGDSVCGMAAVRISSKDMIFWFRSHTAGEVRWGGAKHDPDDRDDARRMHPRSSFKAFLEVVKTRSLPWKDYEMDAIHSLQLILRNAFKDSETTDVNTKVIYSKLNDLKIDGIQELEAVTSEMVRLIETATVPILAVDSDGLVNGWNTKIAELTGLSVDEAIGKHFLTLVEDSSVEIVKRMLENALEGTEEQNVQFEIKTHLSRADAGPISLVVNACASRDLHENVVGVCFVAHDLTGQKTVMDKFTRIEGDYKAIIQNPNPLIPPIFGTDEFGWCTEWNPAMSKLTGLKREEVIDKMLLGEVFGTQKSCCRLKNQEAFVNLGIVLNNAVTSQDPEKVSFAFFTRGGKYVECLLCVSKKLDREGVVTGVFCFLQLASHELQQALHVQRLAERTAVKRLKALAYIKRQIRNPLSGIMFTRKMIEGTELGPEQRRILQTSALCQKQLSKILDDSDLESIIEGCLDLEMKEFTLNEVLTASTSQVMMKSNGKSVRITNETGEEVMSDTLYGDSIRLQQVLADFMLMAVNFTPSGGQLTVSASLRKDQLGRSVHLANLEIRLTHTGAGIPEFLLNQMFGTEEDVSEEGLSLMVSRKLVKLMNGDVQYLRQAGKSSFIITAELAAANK
Description: pull-down; 1 μg GST-tagged FIN219 protein on 10 μl GST beads overnight at 4°C in 1 ml 1X PBS, then 1 μg CBP-PHYA for 2 h at 4°C; eight washes with 1X PBS; blots with anti-GST and anti-phyA. Particulars: both partners purified.

B1: GST-FIN219-FL (enzyme, Arabidopsis, UniProt Q9SKE2 1-575, looked up)
chain: MLEKVETFDMNRVIDEFDEMTRNAHQVQKQTLKEILLKNQSAIYLQNCGLNGNATDPEEAFKSMVPLVTDVELEPYIKRMVDGDTSPILTGHPVPAISLSSGTSQGRPKFIPFTDELMENTLQLFRTAFAFRNRDFPIDDNGKALQFIFSSKQYISTGGVPVGTATTNVYRNPNFKAGMKSITSPSCSPDEVIFSPDVHQALYCHLLSGILFRDQVQYVFAVFAHGLVHAFRTFEQVWEEIVTDIKDGVLSNRITVPSVRTAMSKLLTPNPELAETIRTKCMSLSNWYGLIPALFPNAKYVYGIMTGSMEPYVPKLRHYAGDLPLVSHDYGSSEGWIAANVTPRLSPEEATFAVIPNLGYFEFLPVSETGEGEEKPVGLTQVKIGEEYEVVITNYAGLYRYRLGDVVKVIGFYNNTPQLKFICRRNLILSINIDKNTERDLQLSVESAAKRLSEEKIEVIDFSSYIDVSTDPGHYAIFWEISGETNEDVLQDCCNCLDRAFIDAGYVSSRKCKTIGALELRVVAKGTFRKIQEHFLGLGSSAGQFKMPRCVKPSNAKVLQILCENVVSSYFSTAF
notes: FIN219/JAR1, Arabidopsis, At2g46370, full length; also called full-length FIN219; source: E. coli, purified (Glutathione Sepharose 4B)
For B1, the binding result is “binds”.
